Patent US20120316071A1
Numbering of substitutions follows the chain as printed. In names and notes the source's numbering stands. Values belong to the binder of their own block, whether it stands above or below them.

Legend:
[1] = target: human Delta-like ligand 4 (DLL4), full-length, expressed on CHO cells (human) (UniProt Q9NR61); assay: cell-based or functional assay
[2] = target: rHuman Notch-1/Fc Chimera, CF (R&D Systems Cat#3647-TK) (human) (UniProt P46531); assay: ECL multispot (MSD) assay, antigen spotted on plate, 20 nM Fab
[3] = target: rHuman P-Cadherin/Fc Chimera, CF (R&D Systems Cat#861-PC) (human) (UniProt P22223); assay: Multispot ECL (MSD), antigen spotted on plate, Fab 36.3 nM; blank spot 314
[4] = target: rHuman P-Cadherin/Fc Chimera, CF (R&D Systems Cat#861-PC) (human) (UniProt P22223); assay: Multispot ECL (MSD), antigen spotted on plate, Fab […]; blank spot 357
[5] = target: rHuman P-Cadherin/Fc Chimera, CF (R&D Systems Cat#861-PC) (human) (UniProt P22223); assay: Multispot ECL (MSD), antigen spotted on plate, Fab 580 nM; blank spot 679
[6] = target: rHuman P-Cadherin/Fc Chimera, CF (R&D Systems Cat#861-PC) (human) (UniProt P22223); assay: Multispot ECL (MSD), antigen spotted on plate, Fab […]; blank spot 276
[7] = target: rHuman ErbB2/Fc Chimera, CF (R&D Systems Cat#1129-ER) (human) (UniProt P04626); assay: ECL multispot (MSD) binding assay, antigen spotted on plate, Fab 0.04 uM
[8] = target: Recombinant Human DLL4 (R&D Systems Cat#1506-D4/CF) (human) (UniProt Q9NR61); assay: ECL (MSD) binding assay, immobilised DLL4
[9] = target: Recombinant Human DLL4 (R&D Systems Cat#1506-D4/CF) (human) (UniProt Q9NR61); assay: ELISA, DLL4 coated on plate, Fab at 20 nM
[10] = target: Recombinant Human DLL4 (R&D Systems Cat#1506-D4/CF) (human) (UniProt Q9NR61); assay: ELISA, DLL4 coated on plate, Fab at 2.22 nM
[11] = target: Recombinant Human DLL4 (R&D Systems Cat#1506-D4/CF) (human) (UniProt Q9NR61); assay: ELISA, DLL4 coated on plate, Fab at 0.74 nM
[12] = target: Recombinant Human DLL4 (R&D Systems Cat#1506-D4/CF) (human) (UniProt Q9NR61); assay: ELISA, DLL4 coated on plate, Fab at […]
[13] = target: Recombinant Human DLL4 (delta-like protein 4) (human) (UniProt Q9NR61); assay: ELISA, DLL4 coated on plate, Fab at 100 nM (2-fold dilution series), absorbance at 450 nm
[14] = target: Recombinant Human DLL4 (delta-like protein 4) (human) (UniProt Q9NR61); assay: ELISA, DLL4 coated on plate, Fab at 12.5 nM (2-fold dilution series), absorbance at 450 nm
[15] = target: Recombinant Human DLL4 (delta-like protein 4) (human) (UniProt Q9NR61); assay: ELISA, DLL4 coated on plate, Fab at 25 nM (2-fold dilution series), absorbance at 450 nm
[16] = target: Recombinant Human DLL4 (delta-like protein 4) (human) (UniProt Q9NR61); assay: ELISA, DLL4 coated on plate, Fab at 50 nM (2-fold dilution series), absorbance at 450 nm

B1: Fab VH6-1_IGHD6-13*01_IGHJ4*01 and V2-17_IGLJ2*01 (Fab, V domains shown)
VH: QVQLQQSGPGLVKPSQTLSLTCAISGDSVSSNSAAWNWIRQSPSRGLEWLGRTYYRSKWYNDYAVSVKSRITINPDTSKNQFSLQLNSVTPEDTAVYYCAREGYSSSWYDYFDYWGQGTLVTVSS
VL: SYELTQPPSVSVSPGQTARITCSGDALPKQYAYWYQQKPGQAPVLVIYKDSERPSGIPERFSGSSSGTTVTLTISGVQAEDEADYYCQSADSSGTYPVVFGGGTKLTVL
Notch1 luciferase reporter luminescence, T98G reporter cells + CHO-DLL4, 0.8 nM Fab, replicate 1 [1]: 4480 | Notch1 luciferase reporter luminescence, T98G reporter cells + CHO-DLL4, 0.8 nM Fab, replicate 2 [1]: 4540 | Notch1 luciferase reporter luminescence, T98G reporter cells + CHO-DLL4, 0.8 nM Fab, replicate 3 [1]: 3910 | Notch1 luciferase reporter luminescence, T98G reporter cells + CHO-DLL4, 0.8 nM Fab, replicate 4 [1]: 4220 | Notch1 luciferase reporter luminescence, T98G reporter cells + CHO-DLL4, 4 nM Fab, replicate 1 [1]: 4810 | Notch1 luciferase reporter luminescence, T98G reporter cells + CHO-DLL4, 4 nM Fab, replicate 2 [1]: 4920 | Notch1 luciferase reporter luminescence, T98G reporter cells + CHO-DLL4, 4 nM Fab, replicate 3 [1]: 4190 | Notch1 luciferase reporter luminescence, T98G reporter cells + CHO-DLL4, 4 nM Fab, replicate 4 [1]: 4520 | Notch1 luciferase reporter luminescence, T98G reporter cells + CHO-DLL4, 20 nM Fab, replicate 1 [1]: 5400 | Notch1 luciferase reporter luminescence, T98G reporter cells + CHO-DLL4, 20 nM Fab, replicate 2 [1]: 4990 | Notch1 luciferase reporter luminescence, T98G reporter cells + CHO-DLL4, 20 nM Fab, replicate 3 [1]: 4320 | Notch1 luciferase reporter luminescence, T98G reporter cells + CHO-DLL4, 20 nM Fab, replicate 4 [1]: 4550 | Notch1 luciferase reporter luminescence, T98G reporter cells + CHO-DLL4, 100 nM Fab, replicate 1 [1]: 4820 | Notch1 luciferase reporter luminescence, T98G reporter cells + CHO-DLL4, 100 nM Fab, replicate 2 [1]: 4810 | Notch1 luciferase reporter luminescence, T98G reporter cells + CHO-DLL4, 100 nM Fab, replicate 3 [1]: 4030 | Notch1 luciferase reporter luminescence, T98G reporter cells + CHO-DLL4, 100 nM Fab, replicate 4 [1]: 4470

B3: Fab VH3-23_IGHD2-21*01>3_IGHJ6*01 H100E/S108P/Y113G D62A & V2-13_IGLJ2*01 (Fab, V domains shown)
VH: EVQLLESGGGLVQPGGSLRLSCAASGFTFSSYAMSWVRQAPGKGLEWVSSISGSGGSTYYAASVKGRFTISRDNSKNTLYLQMNSLRAEDTAVYYCAKEEIVVVIAIPYYYYGYGMDVWGQGTLVTVSS
VL: SSELTQDPAVSVALGQTVRITCQGDSLRSYYASWYQQKPGQAPVLVIYGKNNRPSGIPDRFSGSSSGNTASLTITGAQAEDEADYYCNSRDSSGNHLVVFGGGTKLTVL
ECL signal/blank ratio (read-out not given) [2]: 3.5

B4: Fab VH4-34_IGHD7-27*01_IGHJ4*01 & V1-4_IGLJ4*01 (Fab, V domains shown)
VH: QVQLQQWGAGLLKPSETLSLTCAVYGGSFSGYYWSWIRQPPGKGLEWIGEINHSGSTNYNPSLKSRVTISVDTSKNQFSLKLSSVTAADTAVYYCARANWGDYFDYWGQGTLVTVSS
VL: QSALTQPASVSGSPGQSITISCTGTSSDVGGYNYVSWYQQHPGKAPKLMIYEVSNRPSGVSNRFSGSKSGNTASLTISGLQAEDEADYYCSSYTSSSTLFVFGGGTQLIIL
ECL signal at 36.3 nM Fab [3]: 684 | ECL signal at 145 nM Fab [4]: 850 | ECL signal at 580 nM Fab [5]: 2240 | ECL signal at 9.1 nM Fab [6]: 589

B8: Fab VH5-51_IGHD5-18*01>3_IGHJ4*01 G100K/G104T G24L/S28R/G35V & V3-4_IGLJ1*01 M94R/S96M (L:RM) (Fab, V domains shown)
VH: EVQLVQSGAEVKKPGESLKISCKLSGYRFTSYWIVWVRQMPGKGLEWMGIIYPGDSDTRYSPSFQGQVTISADKSISTAYLQWSSLKASDTAMYYCARRKYSYTYDYFDYWGQGTLVTVSS
VL: QTVVTQEPSFSVSPGGTVTLTCGLSSGSVSTSYYPSWYQQTPGQAPRTLIYSTNTRSSGVPDRFSGSILGNKAALTITGAQADDESDYYCVLYRGMGISYVFGTGTKVTVL
ECL signal [8]: 889

B9: Fab VH5-51_IGHD5-18*01>3_IGHJ4*01 G100K/G104T G24T/S28R/G35V Y105N & V3-4_IGLJ1*01 (wildtype) (Fab, V domains shown)
VH: B8 VH with L24T, Y105N
VL: B8 VL with R94M, M96S
ELISA signal [13]: 0.25 | ELISA signal [14]: 0.21 | ELISA signal [15]: 0.19 | ELISA signal [16]: 0.18

B11: Fab VH5-51_IGHD5-18*01>3_IGHJ4*01 G100K/G104T G24L/S28R/G35V D109Q & V3-4_IGLJ1*01 (wildtype) (Fab, V domains shown)
VH: B8 VH with L24T, D109Q
VL: B8 VL with R94M, M96S
ELISA signal [13]: 0.3 | ELISA signal [14]: 0.24 | ELISA signal [15]: 0.22 | ELISA signal [16]: 0.25

B12: Fab VH5-51_IGHD5-18*01>3_IGHJ4*01 G100K/G104T G24A/S28R/G35V & V3-4_IGLJ1*01 M94R/S96M (L:RM) (Fab, V domains shown)
VH: B8 VH with L24A
VL: B8 VL
ECL signal [8]: 1200

B13: Fab VH5-51_IGHD5-18*01>3_IGHJ4*01 G100K/G104T G24A/S28R/G35V Y107F & V3-4_IGLJ1*01 (wildtype) (Fab, V domains shown)
VH: B8 VH with L24T, Y107F
VL: B8 VL with R94M, M96S
ELISA signal [13]: 0.28 | ELISA signal [14]: 0.21 | ELISA signal [15]: 0.2 | ELISA signal [16]: 0.24

B14: Fab VH5-51_IGHD5-18*01>3_IGHJ4*01 G100K/G104T G24L/S28R/G35V Y105H & V3-4_IGLJ1*01 (wildtype) (Fab, V domains shown)
VH: B8 VH with L24T, Y105H
VL: B8 VL with R94M, M96S
ELISA signal [13]: 0.23 | ELISA signal [14]: 0.21 | ELISA signal [15]: 0.19 | ELISA signal [16]: 0.2

Continued, values first:

ECL signal/blank ratio (read-out not given) [2]: 3.1
B2: Fab VH3-23_IGHD2-21*01>3_IGHJ6*01 H100E/S108P/Y113G T58A & V2-13_IGLJ2*01 (Fab, V domains shown)
VH: B3 VH with T58A, A62D
VL: B3 VL

ECL signal [7]: 1370
B5: Fab VH5-51_IGHD5-18*01>3_IGHJ4*01 G100K/G104T (H:KT) & V3-4_IGLJ1*01 L92A (Fab, V domains shown)
VH: B8 VH with L24G, R28S, V35G
VL: B8 VL with L92A, R94M, M96S

ECL signal [8]: 530
B6: Fab VH5-51_IGHD5-18*01>3_IGHJ4*01 G100K/G104T S28R & V3-4_IGLJ1*01 M94R/S96M (L:RM) (Fab, V domains shown)
VH: B8 VH with L24G, V35G
VL: B8 VL

ELISA signal [9]: 0.006 | ELISA signal [10]: 0 | ELISA signal [11]: 0 | ELISA signal [12]: 0.034
B7: Fab VH5-51_IGHD5-18*01>3_IGHJ4*01 G100K/G104T G24A/S28R/G35V (H:KT ARV) & V3-4_IGLJ1*01 M94R/S96M (L:RM) (Fab, V domains shown)
VH: B8 VH with L24A
VL: B8 VL

ELISA signal [9]: 0.003 | ELISA signal [10]: 0 | ELISA signal [11]: 0 | ELISA signal [12]: 0
B10: Fab VH5-51_IGHD5-18*01>3_IGHJ4*01 G100K/G104T G24L/S28R/G35V (H:KT LRV) & V3-4_IGLJ1*01 M94R/S96M (L:RM) (Fab, V domains shown)
VH: B8 VH
VL: B8 VL
